Assay [1] concerns the target heat shock protein 60 (Hsp60), bovine brain (bovine (endogenous in bovine brain)) (UniProt P31081). In words: co-IP; Mono S active fraction from bovine brain, anti-Hsp60 antibody; N-SMase activity recovered in the immunoprecipitates after resuspension in IP buffer (data not shown).
Assay [2] shares this target. In words: co-IP; active N-SMase fraction (Mono S or Superose 12) from bovine brain, holding both proteins together; anti-Hsp60 or anti-N-SMase2 antibody on Protein A Sepharose, 4 h at 4°C; N-SMase activity of supernatants and immunoprecipitates, immunoblot; with indicated concentrations of Triton X-100 in one panel. In general terms: A western blot detects proteins with antibodies after separation by electrophoresis.

Sequence of UniProt P31081 (P31081 27-573): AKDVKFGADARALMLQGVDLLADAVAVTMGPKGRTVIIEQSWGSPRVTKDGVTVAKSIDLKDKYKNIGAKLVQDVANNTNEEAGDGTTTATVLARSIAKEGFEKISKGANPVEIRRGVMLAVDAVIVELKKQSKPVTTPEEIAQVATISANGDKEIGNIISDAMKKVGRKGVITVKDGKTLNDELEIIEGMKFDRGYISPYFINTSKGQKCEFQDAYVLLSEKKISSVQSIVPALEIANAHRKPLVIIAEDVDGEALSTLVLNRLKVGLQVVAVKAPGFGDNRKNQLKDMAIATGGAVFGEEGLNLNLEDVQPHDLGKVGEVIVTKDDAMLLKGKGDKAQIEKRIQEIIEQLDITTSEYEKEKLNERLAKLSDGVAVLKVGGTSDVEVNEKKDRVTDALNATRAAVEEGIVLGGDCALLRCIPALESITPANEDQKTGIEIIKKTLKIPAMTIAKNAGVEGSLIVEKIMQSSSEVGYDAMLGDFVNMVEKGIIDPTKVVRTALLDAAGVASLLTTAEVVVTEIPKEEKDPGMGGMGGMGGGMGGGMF

Turning to “neutral sphingomyelinase 2 (N-SMase2), bovine brain, purified as N-SMase ε (enzyme)”, the percent of total N-SMase activity recovered in the anti-Hsp60 immunoprecipitates in assay [1] amounted to 10%. The substance further returned a percent of N-SMase activity precipitated by anti-Hsp60 antibody in assay [2] of 20%.

Values taken from paper PMC3686747.
